# In paper doi:10.1101/027631:
# Target: recombinant tubulin lacking the β-tubulin CTT, polymerised into microtubules (S. cerevisiae | human) (UniProt P09733)
# Assay: TIRF microscopy of single fluorescent molecules on surface-held microtubules
substance,measurement,value
dynein-dynactin-BicD2 (DDB) complex (from UniProt Q921C5 25-400; A0A287B8J2 1-1281),reduction of the frequency of processive movement relative to WT MTs,20%
